Where a chain is given by its changes, count along the chain named.

Holding throughout (assay): high-throughput RNA pulldown from lysate on Ni-NTA beads; HRP: 50 mM Tris pH 8, 150 mM NaCl, 1 mM beta-mercaptoethanol, 50 ug/ml BSA, 3 ug/ml yeast RNA, 0.5% heparin; ITC and FP: Tris pH 8, 200 mM KCl, 5% glycerol; MST: 50 mM Tris pH 8, 200 mM NaCl, 1 mM DTT, BSA, heparin, 0.05% Tween 20
Common to all, as to conditions: tags: N-terminal His-eGFP

Series [1] deals with T1, GFP-9S library array, motif 4 ND N98S;D124H (synthetic construct, N98S;D124H).
T1 chain: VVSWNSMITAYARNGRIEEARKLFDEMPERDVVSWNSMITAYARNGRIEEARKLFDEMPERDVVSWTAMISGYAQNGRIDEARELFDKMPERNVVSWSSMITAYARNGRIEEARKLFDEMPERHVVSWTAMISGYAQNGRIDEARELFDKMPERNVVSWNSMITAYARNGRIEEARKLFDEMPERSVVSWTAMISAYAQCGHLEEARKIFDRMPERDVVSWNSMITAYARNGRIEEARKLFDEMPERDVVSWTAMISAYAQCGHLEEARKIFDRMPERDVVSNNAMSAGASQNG

Series [2] concerns the target T2, GFP-9S library array, motif 4 ND N98H;D124Q (synthetic construct, N98H;D124Q).
T2 chain: T1 chain with S98H, H124Q

Series [3] addresses T3, GFP-9S library array, motif 4 ND N98S;D124Q (synthetic construct, N98S;D124Q).
T3 chain: T1 chain with H124Q

For series [4], the target named is T4, GFP-9S library array, motif 4 ND N98H (synthetic construct, N98H).
T4 chain: T1 chain with S98H, H124D

The target in series [5] is T5, GFP-9S library array, motif 4 ND N98I;D124H (synthetic construct, N98I;D124H).
T5 chain: T1 chain with S98I

B1: Cy5-rpoA-G (ssRNA)
RNA: AUUAGACGUGA
Consider B1, for which the Kd in series [1] (label: 5' Cy5) came out at 99.4 nM; in series [2] (label: 5' Cy5), 60.8 nM; in series [3] (label: 5' Cy5), 39.2 nM; in series [4] (label: 5' Cy5) it was 26.5 nM; in series [5] (label: 5' Cy5), 107 nM.

B2: IR-rpoA-U (ssRNA)
RNA: AUUAUACGUGA
Regarding B2, the Kd was found to be 101 nM in series [1] (label: 5' IRDye 800CW); 31.4 nM in series [2] (label: 5' IRDye 800CW); 179 nM in series [3] (label: 5' IRDye 800CW); 65.7 nM in series [4] (label: 5' IRDye 800CW); 243 nM in series [5] (label: 5' IRDye 800CW).

B3: Cy5-rpoA (ssRNA)
RNA: AUUACACGUGA
For B3, the Kd in series [1] (label: 5' Cy5) worked out at 122 nM; in series [2] (label: 5' Cy5), 68.7 nM; in series [3] (label: 5' Cy5), 95.2 nM; in series [4] (label: 5' Cy5), 144 nM; in series [5] (label: 5' Cy5), 147 nM.

B4: IR-rpoA-A (ssRNA)
RNA: AUUAAACGUGA
Take B4: the Kd was 53.5 nM in series [1] (label: 5' IRDye 800CW); 82.6 nM in series [2] (label: 5' IRDye 800CW); 40.3 nM in series [3] (label: 5' IRDye 800CW); 465 nM in series [4] (label: 5' IRDye 800CW); 167 nM in series [5] (label: 5' IRDye 800CW).

One may read the Kd as the concentration at which binding is half-saturated.

These data come from PMC8809517, “Cofactor-independent RNA editing by a synthetic S-type PPR protein”.
